From patent WO1997032021A1

Assays:
[1] = molecular target: HLA-A3 molecule on the T2-A3 cell line; assay: T2-A3 MHC stabilisation, w6/32 indirect immunofluorescence, flow cytometry; peptide at 100 uM
[2] = molecular target: HLA-A3 molecule on the T2-A3 cell line; assay: T2-A3 MHC stabilisation, w6/32 indirect immunofluorescence, flow cytometry; peptide at 1 uM
[3] = molecular target: HLA-A3 molecule on the T2-A3 cell line; assay: T2-A3 MHC stabilisation, w6/32 indirect immunofluorescence, flow cytometry; peptide at 10 uM

Expression of MHC (FR), fluorescence ratio [1] | Expression of MHC (FR), fluorescence ratio [2] | Expression of MHC (FR), fluorescence ratio [3] | Binder
1.3 | 1.8 | 1.3 | DFWSGYLEY [HLA-A3 (5-13) peptide, based on CDR-H3 positions 5-13 of 105AD7]
1.8 | 1.2 | 1.8 | VLYYDFWSGY [HLA-A3 (1-10) peptide, based on CDR-H3 positions 1-10 of 105AD7]
